# Source: paper PMC10547764, “KaScape: a sequencing-based method for global characterization of protein‒DNA binding affinity”
# B1: KaScape n=4 member GACT (dsDNA)
# DNA 1: GCGCTGACTAGGAGTGGGATCCGGGGGGGG
# DNA 2: CCCCCCCCGGATCCCACTCCTAGTCAGCGC
# B2: type 8 (GGACC) (dsDNA)
# DNA 1: GCGCTGGACCAGGAG
# DNA 2: CTCCTGGTCCAGCGC
# B3: type 4 (GACCA) (dsDNA)
# DNA 1: GCGCTGACCAAGGAG
# DNA 2: CTCCTTGGTCAGCGC
# B4: type 3 (GACCC) (dsDNA)
# DNA 1: GCGCTGACCCAGGAG
# DNA 2: CTCCTGGGTCAGCGC
# B5: type 2 (GACCT) (dsDNA)
# DNA 1: GCGCTGACCTAGGAG
# DNA 2: CTCCTAGGTCAGCGC
# B6: type 7 (CGACC) (dsDNA)
# DNA 1: GCGCTCGACCAGGAG
# DNA 2: CTCCTGGTCGAGCGC
# B7: type 6 (TGACC) (dsDNA)
# DNA 1: GCGCTTGACCAGGAG
# DNA 2: CTCCTGGTCAAGCGC
# B8: type 1 (GACCG) (dsDNA)
# DNA 1: GCGCTGACCGAGGAG
# DNA 2: CTCCTCGGTCAGCGC
# B9: type 5 (AGACC) (dsDNA)
# DNA 1: GCGCTAGACCAGGAG
# DNA 2: CTCCTGGTCTAGCGC
# Biological target: T1, AtWRKY1N (N-terminal WRKY DNA-binding domain) (UniProt Q9SI37 105-169)
# T1 sequence (Q9SI37 105-169): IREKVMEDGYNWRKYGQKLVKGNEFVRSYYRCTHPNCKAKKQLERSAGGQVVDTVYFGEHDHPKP
# Assay: KaScape pull-down + NGS; random n=4 pool; second strongest; KaScape: 2e-11 mol protein and 1e-10 mol dsDNA in 2 mL, 30 min, Ni beads 1 h at 4 C, washes in buffer C (25 mM HEPES pH 7.0, 100 mM NaCl); EMSA buffer not given
# Settings: protein: recombinant; tags: C-terminal His-tag (pET21b)
row,Binder,binding result
1,B1,binds

# Biological target: T1, AtWRKY1N (N-terminal WRKY DNA-binding …)
# Assay: EMSA; protein:DNA 1:1 and 2:1; KaScape: 2e-11 mol protein and 1e-10 mol dsDNA in 2 mL, 30 min, Ni beads 1 h at 4 C, washes in buffer C (25 mM HEPES pH 7.0, 100 mM NaCl); EMSA buffer not given
# Settings: protein: recombinant; tags: C-terminal His-tag (pET21b)
row,Binder,binding result
1,B2,binds
2,B3,binds
3,B4,binds
4,B5,binds
5,B6,no binding
6,B7,binds
7,B8,binds
8,B9,binds
